This assay has as its target T1, human FLT3 (human, UniProt P36888 27-993).
T1 construct: On transfected CHO cells, or on the FLT3 positive human AML cell lines EOL-1 / MV4-11 where the row says so; also called hu FLT3; full length human FLT3
Briefly: FACS, scFv on CHO-human FLT3 pre-incubated with FLT3 ligand (competitor).

Changes are numbered by the printed parent chain.

Description: The detection was performed using mouse anti-FLAG+PE-conjugated goat anti-mouse and the Fluorescence median detected by FACS (median (+ligand)/median (w/o ligand)*100%)
Afterwards cells were not washed but directly stained with FLT3 binder (scFv's). […] As negative control, cells were incubated with an unspecific scFv instead of FLT3 scFv.
For the evaluation of the data, the fluorescence median was detected by FACS.

B1: FL-30 scFv (scFv)
scFv: QVTLKESGPVLVKPTQTLTLTCTFSGFSLSNARMGVSWIRQPPGKALEWLALIYWNDDKRYSPSLKSRLTITKDTSKNQVVLTMTNMDPVDTATYYCARMVGYGSGWYAYFDYWGQGTLVTVSSGGGGSGGGGSGGGGSDIQMTQSPSSLSASVGDRVTITCRASQGIRNDLGWYQQKPGKAPKRLIYAASSLQSGVPSRFSGSGSGTEFTLTISSLQPEDFATYYCLQHNSYPLTFGGGTKVEIK
notes: periplasmic prep
In the case of B1, the “median [+ligand]/median [w/o ligand]*100” value was no less than 75%.

B2: FL-8 scFv (scFv)
scFv: QVTLKESGPALVKPTETLTLTCTVSGFSLSYARMGVSWIRQPPGKALEWLAQIFSNDEKSYSTSLKSRLTISKGTSNSQVVLTMTNMDPEDTATYYCARIVGYGTGWYGFFDYWGQGILVTVSSGGGGSGGGGSGGGGSDIQMTQSPSSLSASVGDRVTITCRASQGIRNDLGWYQQKPGKAPKRLIYAASSLQSGVPSRFSGSGSGTEFTLTISSLQPEDFATYYCLQHNSYPLTFGGGTKVDIK
notes: periplasmic prep
B2: the “median [+ligand]/median [w/o ligand]*100” value was no less than 75%.

B3: FL-31 scFv (scFv)
scFv: B2 scFv with E16Q, V24F, Y31N, Q52H, G74D, N77K, N86D, A164T, D244E
notes: periplasmic prep
Turning to B3, the “median [+ligand]/median [w/o ligand]*100” value was no less than 75%.

B4: FL-3 scFv (scFv)
scFv: QVTLKESGPALVKPTETLTLTCTVSGFSLSNARMAVSWIRQPPGKALEWLAHIFSNGEKSYSTSLKSRLTISKDTSKTQVVLTMTNTDPVDTATYFCARIVGYSDWLLPFDHWGQGIMVTVSSGGGGSGGGGSGGGGSDIQMTQSPSSLSASVGDRVTITCRASQNINRFLNWYQQKPGKAPKLLIYAASSLQSGVPSRFSGSGSGTDFTLTISSLQPEDFATYYCLQHNSYPWTFGQGTKVDIK
notes: periplasmic prep
For B4, the “median [+ligand]/median [w/o ligand]*100” value was no less than 75%.

B5: FL-54 scFv (scFv)
scFv: QVQLVESGGGVVQPGRSLRLSCAASGFTFSSYGMHWVRQAPGKCLEWVAVISYDGSNEFYADSVKGRFTISRDNSKNTLYLQMNSLRAEDTAVYYCARGGEITMVRGVIGYYYYGMDVWGQGTTVTVSSGGGGSGGGGSGGGGSEIVMTQSPATLSVSPGERATLSCRASQGVRNNLVWYQQKPGQAPRLLIYGASTRATGIPARFSGSGSGTEFTLTISSLQSEDFATYYCLQHNSYPLTFGCGTKVEIK
notes: periplasmic prep
For the molecule B5, the “median [+ligand]/median [w/o ligand]*100” value is no less than 75%.

B6: FL-62 scFv (scFv)
scFv: B5 scFv with C44G, C244G
notes: periplasmic prep; also called F-62
B6: the “median [+ligand]/median [w/o ligand]*100” value is no less than 75%.

B7: FL-19 scFv (scFv)
scFv: QVTLKESGPTLVKPTETLTLTCTVSGFSLSYARMGVSWIRQPPGKALEWLAQIFSNDEKSYSTSLKSRLTISKDTSKSQVVLTMTDMDPEDTATYYCARIVGYGTGWYGYFDYWGQGTQVTVSSGGGGSGGGGSGGGGSDIQMTQSPSSLSASVGDRVTITCRASQDIGDDLGWYQQKPGKAPKRLIYAASTLQSGVPFRFSGSGSGTDFTLTISSLQPEDFATYYCLQHNSYPLTFGGGTKVEIK
notes: periplasmic prep
Consider B7, for which the “median [+ligand]/median [w/o ligand]*100” value is no less than 75%.

B8: FL-55 scFv (scFv)
scFv: QVQLVESGGGVVQPGRSLRLSCAASGFTFSSYGMHWVRQAPGKCLEWVAVISYDGSNKYYADSVKGRFTISRDNSKNTLYLQMNSLRAEDTAVYYCARSYGMDVWGQGTTVTVSSGGGGSGGGGSGGGGSDIQMTQSPSSVSASVGDRVTITCRASQGISSWLAWYQQKPGKAPKLLIYAASSLQSGVPSRFSGSGSGTDFTLTISSLQPEDFATYYCQQANSFPWTFGCGTKLEIK
notes: periplasmic prep
As for B8, the “median [+ligand]/median [w/o ligand]*100” value was no less than 75%.

B9: FL-65 scFv (scFv)
scFv: B8 scFv with C44G, C230Q
notes: periplasmic prep
In the case of B9, the “median [+ligand]/median [w/o ligand]*100” value was no less than 75%.

B10: FL-60 scFv (scFv)
scFv: QVTLKESGPALVKPTQTLTLTCTFSGFSLSNARMGVSWIRQPPGKALEWLAHIFSNDEKSYSTSLKSRLTISKDTSKRQVVLTMTNMDPVDTATYYCARMVGYGSGWYAYFDYWGQGTLVTVSSGGGGSGGGGSGGGGSDIVMTQTPLSLSVTPGQPASISCRSSQSLLHSNGYNYLYWYLQKPGQPPQLLIYEVSNRFSGVPDRFSGSGSGTDFTLKISRVEAEDVGVYYCMQALQTPLTFGGGTKVEIK
notes: periplasmic prep
On to B10, for which the “median [+ligand]/median [w/o ligand]*100” value was no less than 75%.

B11: FL-57 scFv (scFv)
scFv: QVTLKESGPTLVKPTETLTLTCTFSGFSLRYARMGVSWIRQPPGKALEWLAHISSNDEKSFSTALESRLTISTDTSKSQMVLTMTNVDPVDTATYYCARMPGDSNTWRGFFDYWGQGTLVTVSSGGGGSGGGGSGGGGSEIVMTQSPGTLSLSPGERATLSCRTSQTVTNSYIAWYQQRPGQAPRLLIYGTSTRATGIPDRFSGSGSGTDFTLTISRLEPEDFAVYYCQKYGSSPLTFGGGTKLEIK
notes: periplasmic prep
B11: the “median [+ligand]/median [w/o ligand]*100” value is no less than 75%.

B12: FL-7 scFv (scFv)
scFv: QVTLKESGPTLVKPTETLTLTCTVSGFSLNNARMGVSWIRQPPGKALEWLAHIFSNDEKSYSTSLKNRLTISKDSSKTQVVLTMTNVDPVDTATYYCARIVGYGTGWFGYFDYWGQGTQVTVSSGGGGSGGGGSGGGGSDIQMTQSPSSLSASVGDRVTITCRASQDIRTDLAWYQQKPGKAPKRLIYAASSLQSGVPSRFSGSGSGTEFTLTISSLQPEDFATYYCLQHNRYPLTFGGGTKVDIK
notes: periplasmic prep
Take B12: the “median [+ligand]/median [w/o ligand]*100” value was no less than 75%.

B13: FL-1 scFv (scFv)
scFv: QVTLKESGPVLVKPTETLTLTCTVSGFSLINARMGVSWIRQPPGKALEWLAHIFSNAEKSYRTSLKSRLTISKDTSKSQVVLTMTNMDPVDTATYYCARIPGYGGNGDYHYYGMDVWGQGTTVTVSSGGGGSGGGGSGGGGSDIQMTQSPSSLSASLGDRVTITCRASQGIRNDLGWYQQKPGKAPKRLIYASSTLQSGVPSRFSGSGSGTEFTLTISSLQPEDFATYYCLQHNNFPWTFGQGTKVEIK
notes: periplasmic prep
Regarding B13, the “median [+ligand]/median [w/o ligand]*100” value is no less than 75%.

B14: FL-63 scFv (scFv)
scFv: QVQLVESGGGVVQPGRSLRLSCAASGFTFSSYGMHWVRQAPGKGLEWVAVISYDGSNEFYADSVKGRFTISRDNSKNTLYLQMNSLRAEDTAVYYCARGGEITMVRGVIGYYYYGMDVWGQGTTVTVSSGGGGSGGGGSGGGGSDIQMTQSPSSLSASVGDRVTITCRTSQSISSYLNWYQQKPGKAPKLLIYAASSLQSGVPSRFSGSGSGTEFTLTISSLQPEDFATYYCLQHNSYPLTFGGGTKVDIK
notes: periplasmic prep
For B14, the “median [+ligand]/median [w/o ligand]*100” value was no less than 75%.

B15: FL-64 scFv (scFv)
scFv: B14 scFv with D161N, T169A
notes: periplasmic prep
For the molecule B15, the “median [+ligand]/median [w/o ligand]*100” value was no less than 75%.

B16: FL-61 scFv (scFv)
scFv: B14 scFv with T169A, D249E
notes: periplasmic prep
Consider B16, for which the “median [+ligand]/median [w/o ligand]*100” value is no less than 75%.

B17: FL-53 scFv (scFv)
scFv: B14 scFv with G44C, G244C
notes: periplasmic prep
In the case of B17, the “median [+ligand]/median [w/o ligand]*100” value is no less than 75%.

B18: FL-2 scFv (scFv)
scFv: QVTLKESGPVLVKPTETLTLTCTVSGFSLRNARMGVSWIRQPPGKALEWLAHIFSNDEKTYSTSLKSRLTISRDTSKGQVVLTMTKMDPVDTATYYCARIPYYGSGSHNYGMDVWGQGTTVTVSSGGGGSGGGGSGGGGSDIQMTQSPSSLSASVGDRVTITCRASQDIRNDFGWYQQKPGKAPQRLLYAASTLQSGVPSRFSGSGSGTEFTLTISSLQPEDFATYYCLQYNTYPWTFGQGTKVEIK
notes: periplasmic prep
For B18, the “median [+ligand]/median [w/o ligand]*100” value is no less than 75%.

B19: FL-18 scFv (scFv)
scFv: QVTLKESGPVLVKPTQTLTLTCTFSGFSLSNARMGVSWIRQPPGKALEWLAHIFSNDEKSFSTSLKNRLTISKDTSKSQVVLTMTNMDPVDTATYYCARMVGYGSGWYAYFDYWGQGTQVTVSSGGGGSGGGGSGGGGSDIQMTQSPSSLSASVGDRVTITCRASQSISSYLNWYQQKPGKAPKLLIYAASSLQSGVPSRFSGSGSGTDFTLTISSLQPEDFATYYCLQHNSYPLTFGGGTKVEIK
notes: periplasmic prep
For the molecule B19, the “median [+ligand]/median [w/o ligand]*100” value was no less than 75%.

B20: FL-41 scFv (scFv)
scFv: B19 scFv with A46C, G239C
notes: periplasmic prep
B20: the “median [+ligand]/median [w/o ligand]*100” value was no less than 75%.

B21: FL-35 scFv (scFv)
scFv: QVTLKESGPALVKPTETLTLTCTVSGFSLNNARMGVSWIRQPPGKALEWLAHIFSNDEKSYSTSLKNRLTISKDSSKTQVVLTMTNVDPVDTATYYCARIVGYGTGWYGFFDYWGQGTQVTVSSGGGGSGGGGSGGGGSDIQMTQSPSSLSASVGDRVTITCRASQDIRDDLVWYQQKPGKAPKRLIYGTSTLQSGVPSRFSGSGSGTEFTLTISSLQPEDFATYYCLQHHSYPLTFGGGTKLEIK
notes: periplasmic prep
Turning to B21, the “median [+ligand]/median [w/o ligand]*100” value is no less than 75%.

B22: FL-56 scFv (scFv)
scFv: QVTLKESGPVLVKPTETLTLTCTVSGFSLRNVRMGVSWIRQPPGKALEWLAHIFSNDEKLYTTSLKSRLTISKDTSKSQVVLTMTNMDPEDTATYYCARIVGYGTGWYGYFDYWGQGTQVTVSSGGGGSGGGGSGGGGSDIQMTQSPSSLSASIGDRVTITCRASQDIRDDLGWYQREPGKAPKRLIYATSIRQSGVPSRFSGSGSGTEFTLTISGLQPEDFATYFCLQHHSFPLTFGGGTKVDIK
notes: periplasmic prep
Regarding B22, the “median [+ligand]/median [w/o ligand]*100” value is no less than 75%.

B23: FL-17 scFv (scFv)
scFv: QVTLKESGPTLVKPTETLTLTCTVSGFSLSNARMGVSWIRQPPGKALEWLANIFSNDEKSYSTSLKSRLTISKGTSKSQVVLTMTNVNPVDTGTYYCARIVGYGSGWYGYFDYWGQGTLVTVSSGGGGSGGGGSGGGGSDIQMTQSPSSLSASVGDRVTITCRASQDIRNDLGWYQQKPGKAPKRLIYATSIRQSGVPSRFTGSGSGTEFTLTISGLQPEDFATYFCLQHNSFPLTFGGGTKVEIK
notes: periplasmic prep
For B23, the “median [+ligand]/median [w/o ligand]*100” value is no less than 75%.

B24: FL-40 scFv (scFv)
scFv: B23 scFv with A46C, G239C
notes: periplasmic prep
As for B24, the “median [+ligand]/median [w/o ligand]*100” value is no less than 75%.
